Results from article PMC10605006.

Biological target: NTD (SARS-CoV-2) (UniProt P0DTC9)
Test: fluorescence anisotropy
Details: Anisotropy: 50 mM Na phosphate pH 6.5, 150 mM NaCl, 1 mM NaN3, 50 nM RNA; EMSA: 20 mM Tris pH 7.5, 150 mM NaCl, 1 mM DTT, room temp, 25 uM RNA; NTD NMR: 20 mM …

Which Kd does the source give for “GGCACAUGGACGUC / GACGUCCAUGUGCC [ds-14mer]” here?
Its Kd is 30 µM.
